# B1: Hairpin Ribozyme (parent)
# chain: GUCCUCUUUCACGUGCGCGUGAAAGAGAGAAGUGAACCAGAGAAACACACGUUGUGGUAUAUUACCUGGUA
# Variants of: B1
# Experiment: self-cleavage, relative activity (ratio to wild type); higher = more cleavage; co-transcriptional
row,Variant,self-cleavage
1,C4U A24U,0.295
2,C4U A26U,0.156
3,C4U A28U,0.178
4,C4U A30U,0.13
5,C4U A31G,0.0741
6,C4U A35G,0.304
7,C4U A36C,0.145
8,C4U A36G,0.465
9,C4U A36U,0.227
10,C4U A39C,0.251
11,C4U A39G,0.122
12,C4U A43C,0.128
13,C4U A44C,0.102
14,C4U A47G,0.0924
15,C4U A64C,0.181
16,C4U A64G,0.25
17,C4U A71C,0.622
18,C4U C10U,0.224
19,C4U C12G,0.259
20,C4U C16G,0.243
21,C4U C37G,0.147
22,C4U C46U,0.152
23,C4U C48A,0.114
24,C4U C48G,0.123

row,Variant,self-cleavage
1,C4U C50G,0.11
2,C4U C66U,0.234
3,C4U G13C,0.282
4,C4U G13U,0.314
5,C4U G15A,0.33
6,C4U G15C,0.232
7,C4U G15U,0.32
8,C4U G17C,0.266
9,C4U G17U,0.313
10,C4U G21A,0.389
11,C4U G25C,0.11
12,C4U G25U,0.126
13,C4U G27A,0.722
14,C4U G29C,0.108
15,C4U G32A,0.196
16,C4U G34C,1.03
17,C4U G34U,1.12
18,C4U G40U,0.0478
19,C4U G42U,0.129
20,C4U G51C,0.337
21,C4U G54U,0.198
22,C4U G56C,0.214
23,C4U G56U,0.126
24,C4U G68U,0.109

row,Variant,self-cleavage
1,C4U G69A,0.12
2,C4U G69C,0.204
3,C4U U7C,0.193
4,C4U U8C,0.241
5,C4U U9A,0.202
6,C4U U33C,0.237
7,C4U U52A,0.295
8,C4U U53A,0.358
9,C4U U55C,0.093
10,C4U U58C,0.495
11,C4U U63A,0.157
12,C4U U63C,0.191
13,C4U U70G,0.214
14,U5A A11G,0.324
15,U5A A22C,0.339
16,U5A A22G,0.308
17,U5A A23C,0.436
18,U5A A23U,0.323
19,U5A A24U,0.273
20,U5A A26G,0.244
21,U5A A28C,0.297
22,U5A A28G,0.471
23,U5A A28U,0.126
24,U5A A30G,0.119

row,Variant,self-cleavage
1,U5A A30U,0.263
2,U5A A35C,0.364
3,U5A A36U,0.255
4,U5A A41G,0.162
5,U5A A43U,0.188
6,U5A A44U,0.125
7,U5A A59C,0.262
8,U5A A61G,0.0553
9,U5A A61U,0.185
10,U5A A71G,0.264
11,U5A A71U,0.334
12,U5A C10A,0.188
13,U5A C10G,0.129
14,U5A C18U,0.554
15,U5A C38G,0.0942
16,U5A C48A,0.0341
17,U5A C65A,0.22
18,U5A C65G,0.276
19,U5A C65U,0.222
20,U5A G19A,0.395
21,U5A G21A,0.378
22,U5A G21C,0.156
23,U5A G25A,0.106
24,U5A G25C,0.162

row,Variant,self-cleavage
1,U5A G29A,0.156
2,U5A G29U,0.0792
3,U5A G40C,0.159
4,U5A G51C,0.324
5,U5A G51U,0.389
6,U5A G54A,0.192
7,U5A G54C,0.124
8,U5A G54U,0.327
9,U5A G56A,0.214
10,U5A G69A,0.0903
11,U5A G69C,0.0571
12,U5A G69U,0.115
13,U5A U7A,0.105
14,U5A U7C,0.107
15,U5A U9A,0.371
16,U5A U9G,0.231
17,U5A U14A,0.164
18,U5A U33A,0.145
19,U5A U52C,0.274
20,U5A U52G,0.392
21,U5A U58G,0.251
22,U5A U60G,0.29
23,U5A U62A,0.139
24,U5A U62C,0.224

row,Variant,self-cleavage
1,U5A U67G,0.112
2,U5A U70G,0.171
3,U5C A11G,0.481
4,U5C A11U,0.55
5,U5C A22G,0.63
6,U5C A23U,0.461
7,U5C A26C,0.497
8,U5C A28G,0.358
9,U5C A28U,0.277
10,U5C A30U,0.11
11,U5C A31C,0.0543
12,U5C A31G,0.391
13,U5C A31U,0.0715
14,U5C A39U,0.228
15,U5C A41C,0.734
16,U5C A43C,0.193
17,U5C A43U,0.0569
18,U5C A44G,0.147
19,U5C A45G,0.157
20,U5C A45U,0.133
21,U5C A47G,0.332
22,U5C A49C,0.377
23,U5C A49G,0.343
24,U5C A61U,0.105

row,Variant,self-cleavage
1,U5C A71G,0.389
2,U5C C6A,0.393
3,U5C C10A,0.427
4,U5C C10U,0.423
5,U5C C12A,0.566
6,U5C C12G,0.244
7,U5C C16A,0.693
8,U5C C37U,0.348
9,U5C C38G,0.115
10,U5C C46A,0.139
11,U5C C48G,0.0712
12,U5C C48U,0.0847
13,U5C C50G,0.147
14,U5C C65G,0.0463
15,U5C C66A,0.143
16,U5C G13A,0.591
17,U5C G13U,0.579
18,U5C G17C,0.339
19,U5C G25A,0.265
20,U5C G27A,0.247
21,U5C G29C,0.205
22,U5C G29U,0.114
23,U5C G32C,0.0586
24,U5C G32U,0.132

row,Variant,self-cleavage
1,U5C G51C,0.732
2,U5C G51U,0.704
3,U5C G57U,0.138
4,U5C G68A,0.14
5,U5C G68U,0.127
6,U5C G69C,0.0944
7,U5C U7C,0.303
8,U5C U8A,0.197
9,U5C U8C,0.313
10,U5C U9C,0.457
11,U5C U14A,0.428
12,U5C U20C,0.673
13,U5C U20G,0.508
14,U5C U52C,0.636
15,U5C U52G,0.608
16,U5C U53A,0.535
17,U5C U53C,0.317
18,U5C U55A,0.21
19,U5C U55C,0.2
20,U5C U58G,0.318
21,U5C U60A,0.392
22,U5C U62C,0.0289
23,U5C U63A,0.104
24,U5C U67A,0.0797

row,Variant,self-cleavage
1,U5G A22G,0.251
2,U5G A24C,0.273
3,U5G A26C,0.68
4,U5G A36U,0.0604
5,U5G A45C,0.122
6,U5G A45U,0.0709
7,U5G A47C,0.102
8,U5G A49C,0.205
9,U5G A49G,0.109
10,U5G A59C,0.13
11,U5G A59G,0.0492
12,U5G A61G,0.0248
13,U5G A64C,0.155
14,U5G A64G,0.177
15,U5G A71U,0.306
16,U5G C10A,0.235
17,U5G C10G,0.164
18,U5G C12A,0.124
19,U5G C16A,0.435
20,U5G C18U,0.243
21,U5G C38G,0.133
22,U5G C38U,0.195
23,U5G C66U,0.223
24,U5G G13C,0.276

row,Variant,self-cleavage
1,U5G G13U,0.361
2,U5G G15C,0.249
3,U5G G15U,0.431
4,U5G G17A,0.362
5,U5G G17U,0.177
6,U5G G19A,0.243
7,U5G G19U,0.274
8,U5G G21U,0.324
9,U5G G25C,0.214
10,U5G G27A,0.216
11,U5G G27U,0.0644
12,U5G G29U,0.168
13,U5G G32A,0.0653
14,U5G G32U,0.132
15,U5G G40A,0.0651
16,U5G G57C,0.0591
17,U5G G68C,0
18,U5G G68U,0.156
19,U5G G69A,0.0952
20,U5G G69C,0.104
21,U5G G69U,0.247
22,U5G U7A,0.2
23,U5G U9C,0.197
24,U5G U14A,0.204

row,Variant,self-cleavage
1,U5G U14C,0.383
2,U5G U14G,0.152
3,U5G U20C,0.337
4,U5G U33G,0.0612
5,U5G U52A,0.444
6,U5G U53A,0.455
7,U5G U53G,0.179
8,U5G U55A,0.139
9,U5G U55C,0.121
10,U5G U58A,0.272
11,U5G U58C,0.25
12,U5G U62G,0.145
13,U5G U63C,0.116
14,U5G U67G,0.164
15,C6A A11G,0.635
16,C6A A22C,0.541
17,C6A A22U,0.352
18,C6A A23C,0.52
19,C6A A23U,0.503
20,C6A A24C,0.445
21,C6A A28C,0.233
22,C6A A30U,0.0998
23,C6A A39C,0.436
24,C6A A41C,0.873

row,Variant,self-cleavage
1,C6A A41U,0.919
2,C6A A43C,0.197
3,C6A A43G,0.223
4,C6A A44C,0.0999
5,C6A A44G,0.113
6,C6A A44U,0.167
7,C6A A45U,0.179
8,C6A A47G,0.157
9,C6A A49U,0.162
10,C6A A61C,0.225
11,C6A A64C,0.148
12,C6A A64U,0.163
13,C6A A71G,0.606
14,C6A C10U,0.371
15,C6A C12A,0.52
16,C6A C16G,0.351
17,C6A C16U,0.659
18,C6A C18A,0.649
19,C6A C18G,0.43
20,C6A C18U,0.708
21,C6A C37G,0.287
22,C6A C38A,0.141
23,C6A C46A,0.119
24,C6A C46U,0.171

row,Variant,self-cleavage
1,C6A C48A,0.084
2,C6A C48G,0.121
3,C6A C65A,0.492
4,C6A C66A,0.198
5,C6A C66G,0.109
6,C6A C66U,0.247
7,C6A G13C,0.341
8,C6A G15C,0.586
9,C6A G15U,0.582
10,C6A G17C,0.424
11,C6A G19C,0.55
12,C6A G21A,0.6
13,C6A G21U,0.542
14,C6A G25C,0.64
15,C6A G25U,0.763
16,C6A G27A,0.126
17,C6A G27U,0.121
18,C6A G29C,0.123
19,C6A G34U,1
20,C6A G42U,0.223
21,C6A G51C,0.531
22,C6A G68C,0.13
23,C6A G68U,0.181
24,C6A G69A,0.23

row,Variant,self-cleavage
1,C6A U7A,0.648
2,C6A U7G,0.447
3,C6A U8C,0.344
4,C6A U9A,0.417
5,C6A U9C,0.262
6,C6A U14C,0.579
7,C6A U20A,0.551
8,C6A U20C,0.556
9,C6A U33A,0.129
10,C6A U52G,0.547
11,C6A U53A,0.456
12,C6A U53C,0.517
13,C6A U55C,0.243
14,C6A U58A,0.457
15,C6A U60C,0.793
16,C6A U60G,0.4
17,C6A U63A,0.144
18,C6A U63C,0.191
19,C6A U67A,0.144
20,C6A U70A,0.598
21,C6A U70C,0.618
22,C6G A22G,0.52

# Source: the RNAGym collection of RNA variant scans (doi:10.7554/elife.80360)
